PMC10042849

Biological target: EndoS2_(E186L), catalytically inactive EndoS2 (Streptococcus pyogenes (serotype M49)) (UniProt T1WGN1)
Assay: NMR titration; methyl-TROSY (1H,13C HMQC) spectra of MILV methyl-labelled enzyme (45-128 µM) titrated with ligand; 2D lineshape fitting with TITAN, two-state binding model; 20 mM Tris-d11 pH* 7.50, 50 mM NaCl in D2O; 600 MHz, 298 K

With “Fc region of the IgG1 monoclonal antibody Rituximab (Fc-Rituximab) (from UniProt P01857 1-328) (domain or fragment)” the Kd was 3.1 µM, the koff was 4 s⁻¹ and the kon was 1.3e+06 M⁻¹ s⁻¹.
